In patent US20240327538A1 (AMUNIX PHARMACEUTICALS, published 2024):

Columns and labels:
human PSMA-Fc [1] = target: T1, human PSMA-Fc (human, UniProt Q04609 44-750, limits assumed); assay: Octet, human PSMA-Fc, 300-3.6 nM PSMA-uTCE
T1 construct: also called Human PSMA-Fc fusions; not shown: Fc part

human PSMA-Fc [2] = target: T1, human PSMA-Fc; assay: Octet, human PSMA-Fc
Method: Binding affinity of select PSMA PTE variants was tested by Octet.

human PSMA-Fc [3] = target: T1, human PSMA-Fc; assay: Octet
human PSMA-Fc [4] = target: T1, human PSMA-Fc; assay: linker length / domain swap comparison
human PSMA [5] = target: T2, human PSMA (human, UniProt Q04609 44-750, limits assumed); assay: Octet
T2 construct: also called huPSMA
T2 sequence (Q04609 44-750 limits assumed): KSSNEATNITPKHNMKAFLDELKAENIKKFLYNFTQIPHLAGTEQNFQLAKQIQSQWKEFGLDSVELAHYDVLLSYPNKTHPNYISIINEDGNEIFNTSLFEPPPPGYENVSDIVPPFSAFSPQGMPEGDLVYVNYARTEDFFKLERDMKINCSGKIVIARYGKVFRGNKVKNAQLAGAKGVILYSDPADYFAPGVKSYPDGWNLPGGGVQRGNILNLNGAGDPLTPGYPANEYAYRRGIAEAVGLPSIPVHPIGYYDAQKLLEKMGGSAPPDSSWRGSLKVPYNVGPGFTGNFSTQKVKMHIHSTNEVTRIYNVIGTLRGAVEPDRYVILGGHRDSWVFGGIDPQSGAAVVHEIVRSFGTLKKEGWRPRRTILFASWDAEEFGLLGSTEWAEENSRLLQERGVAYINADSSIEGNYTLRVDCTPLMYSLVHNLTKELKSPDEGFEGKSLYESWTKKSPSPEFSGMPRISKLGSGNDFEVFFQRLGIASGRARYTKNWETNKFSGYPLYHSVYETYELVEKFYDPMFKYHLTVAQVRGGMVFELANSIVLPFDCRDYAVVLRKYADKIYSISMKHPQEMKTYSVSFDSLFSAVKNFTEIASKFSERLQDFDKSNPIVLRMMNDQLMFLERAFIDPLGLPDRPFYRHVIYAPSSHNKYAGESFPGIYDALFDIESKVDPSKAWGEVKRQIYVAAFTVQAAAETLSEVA

cynomolgus monkey PSMA [6] = target: T3, cynomolgus monkey PSMA (cynomolgus monkey, UniProt A0A2K5VNZ0 44-750); assay: Octet
T3 construct: also called cyPSMA; Cyno PSMA

[7] = target: T4, cyno PSMA on PSMA-transfected CHO cells (cynomolgus monkey, UniProt A0A2K5VNZ0 1-750); assay: binding to PSMA-transfected CHO cells, labeled secondary antibody to the anti-CD3 scFv
T4 construct: whole, on cells; also called Cyno PSMA CHO
Method: (§1) Surface binding was detected with a labeled secondary antibody specific for the anti-CD3 scFv.
(§2) The binding affinities to both human and cyno PSMA and human and cyno CD3 epsilon were determined.

[8] = target: T5, human PSMA on PSMA-transfected CHO cells (human, UniProt Q04609 1-750); assay: as above
T5 construct: whole, on cells; also called Hu PSMA CHO
T5 sequence (Q04609 whole entry): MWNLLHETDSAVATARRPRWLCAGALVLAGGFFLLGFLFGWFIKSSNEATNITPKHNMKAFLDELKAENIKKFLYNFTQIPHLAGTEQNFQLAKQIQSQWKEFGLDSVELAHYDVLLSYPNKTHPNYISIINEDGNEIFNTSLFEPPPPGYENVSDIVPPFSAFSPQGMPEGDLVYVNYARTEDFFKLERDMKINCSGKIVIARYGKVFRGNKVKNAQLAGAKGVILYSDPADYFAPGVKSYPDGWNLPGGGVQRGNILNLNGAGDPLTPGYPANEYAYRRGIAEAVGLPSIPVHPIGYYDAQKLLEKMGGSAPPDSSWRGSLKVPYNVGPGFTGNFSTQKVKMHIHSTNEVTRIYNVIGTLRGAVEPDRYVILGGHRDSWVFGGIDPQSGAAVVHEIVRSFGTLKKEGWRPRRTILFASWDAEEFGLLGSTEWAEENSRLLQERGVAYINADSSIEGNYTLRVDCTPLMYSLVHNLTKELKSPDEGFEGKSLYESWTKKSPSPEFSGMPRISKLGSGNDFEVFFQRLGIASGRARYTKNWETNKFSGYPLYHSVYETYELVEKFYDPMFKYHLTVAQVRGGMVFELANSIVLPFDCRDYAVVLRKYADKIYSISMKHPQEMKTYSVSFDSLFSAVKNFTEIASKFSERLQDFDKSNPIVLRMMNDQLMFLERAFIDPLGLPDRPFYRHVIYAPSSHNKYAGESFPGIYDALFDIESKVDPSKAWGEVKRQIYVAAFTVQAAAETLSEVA
Method: as §1, §2

[9] = target: T6, cynomolgus monkey CD3 epsilon (cynomolgus monkey, UniProt Q95LI5 22-117, limits assumed); assay: Octet
T6 construct: also called cyCD3e
T6 sequence (looked up): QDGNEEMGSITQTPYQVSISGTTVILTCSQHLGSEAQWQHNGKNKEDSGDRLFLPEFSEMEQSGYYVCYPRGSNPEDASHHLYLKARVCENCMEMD

human CD3 epsilon [10] = target: T7, human CD3 epsilon (human, UniProt P07766 23-126, limits assumed); assay: Octet
T7 construct: also called huCD3e
T7 sequence (P07766 23-126 limits assumed): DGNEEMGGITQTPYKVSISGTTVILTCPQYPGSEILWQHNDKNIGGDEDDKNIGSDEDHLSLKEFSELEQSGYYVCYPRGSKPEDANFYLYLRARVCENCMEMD

human PSMA [11] = target: T2, human PSMA; assay: Biacore
cynomolgus monkey PSMA [12] = target: T3, cynomolgus monkey PSMA; assay: Biacore
[13] = target: T6, cynomolgus monkey CD3 epsilon; assay: Biacore
human CD3 epsilon [14] = target: T7, human CD3 epsilon; assay: Biacore
[15] = target: T8, PSMA on human prostate cancer cell lines (LNCaP, 22Rv1) (human, UniProt Q04609 1-750); assay: cell-based or functional assay
T8 sequence (Q04609 whole entry): as the sequence (Q04609 whole entry) above

human PSMA [16] = target: T2, human PSMA; assay: BLI or SPR
Description: (§3) The values are reported below in Table 19 for PSMA and Table 20 for CD3.

cynomolgus monkey PSMA [17] = target: T3, cynomolgus monkey PSMA; assay: BLI or SPR
Description: as §3

[18] = target: T8, PSMA on human prostate cancer cell …; assay: cell-based or functional assay; remark: listed apart in the source
Cyno CD3 = target: T9, Cyno CD3 (cynomolgus monkey, UniProt Q95LI5 22-117); assay: BLI or SPR
T9 construct: also called cynomolgus monkey CD3; not shown: A CD3 delta partner cannot be excluded
T9 sequence: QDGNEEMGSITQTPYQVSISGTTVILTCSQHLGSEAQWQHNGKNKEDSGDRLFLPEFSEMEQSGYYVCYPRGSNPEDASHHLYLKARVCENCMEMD

Human CD3 = target: T10, Human CD3 (human, UniProt P07766 23-126); assay: BLI or SPR
T10 construct: not shown: A CD3 delta partner cannot be excluded
T10 sequence (P07766 23-126 limits assumed): as the sequence (P07766 23-126 limits assumed) above

human PSMA [19] = target: T2, human PSMA; assay: Pool 2 binding screen

T1 sequence (Q04609 44-750 limits assumed): as the sequence (Q04609 44-750 limits assumed) above

koff (human PSMA-Fc [2])	kon (human PSMA-Fc [2])	Kd (human PSMA-Fc [3])	Kd (human PSMA [5])	Kd (cynomolgus monkey PSMA [6])	Kd (human PSMA-Fc [2])	EC50 [8]	Kd [9]	Kd (human CD3 epsilon [10])	Kd (human PSMA [11])	Kd (cynomolgus monkey PSMA [12])	Kd [13]	Kd (human CD3 epsilon [14])	Binder	other results
0.00028 s⁻¹	104000 M⁻¹ s⁻¹	2.7 nM											uTCE of AC3265 (bispecific antibody, V domains shown, VHH in uTCE with CD3.23 scFv (VL-VH), 9-residue linker; also called PSMA.55; V37Y) VH: QVQLVESGGGVVQPGRSLRLSCAASGRTFGIYVMGWYRQAPGKEREFVAAISWSGSNRLVSDSVKGRFTISRDNSKNTLYLQMNSLRAEDTAVYYCAASNRLYGRTWYDFNESDYWGQGTQVTVSS	Kd (human PSMA-Fc [1]): 2.7 nM
0.000248 s⁻¹	80000 M⁻¹ s⁻¹	3.2 nM			3.2 nM								uTCE of AC3329 (bispecific antibody, unmasked TCE of this paTCE; also called PSMA.119; L59K) LTGPRAPPEPEFARATSGSETPGTQVQLVESGGGVVQPGRSLRLSCAASGRTFGIYVMGWVRQAPGKEREFVAAISWSGSNRKVSDSVKGRFTISRDNSKNTLYLQMNSLRAEDTAVYYCAASNRLYGRTWYDFNESDYWGQGTQVTVSSGGGGSGGGSELVVTQEPSLTVSPGGTVTLTCRSSNGAVTSSNYANWVQQKPGQAPRGLIGGTNKRAPGTPARFSGSLLGGKAALTLSGVQPEDEAVYYCALWYPNLWVFGGGTKLTVLGATPPETGAETESPGETTGGSAESEPPGEGEVQLLESGGGIVQPGGSLKLSCAASGFTFNTYAMNWVRQAPGKGLEWVARIRSKYNNYATYYADSVKDRFTISRDDSKNTVYLQMNNLKTEDTAVYYCVRHENFGNSYVSWFAHWGQGTLVTVSSGTAEAASASGEAGRSANHTPAG	Kd (human PSMA [19]): 4.1 nM

Second part, the binder before the results:

Binder	koff (human PSMA-Fc [2])	kon (human PSMA-Fc [2])	Kd (human PSMA-Fc [3])	Kd (human PSMA [5])	Kd (cynomolgus monkey PSMA [6])	Kd (human PSMA-Fc [2])	EC50 [8]	Kd [9]	Kd (human CD3 epsilon [10])	Kd (human PSMA [11])	Kd (cynomolgus monkey PSMA [12])	Kd [13]	Kd (human CD3 epsilon [14])	other results
uTCE from AC3092 (bispecific antibody, unmasked TCE released from this paTCE; also called AMX-500-P1; PSMA.5-CD3.23 uTCE) LTGPATSGSETPGTQVQLVESGGGVVQPGRSLRLSCAASGRTFGIYVMGWVRQAPGKEREFVAAISWSGSNRLVSDSVKGRFTISRDNSKNTLYLQMNSLRAEDTAVYYCAASNRLYGRTWYDFNESDYWGQGTQVTVSSGGGGSGGGSELVVTQEPSLTVSPGGTVTLTCRSSNGAVTSSNYANWVQQKPGQAPRGLIGGTNKRAPGTPARFSGSLLGGKAALTLSGVQPEDEAVYYCALWYPNLWVFGGGTKLTVLGATPPETGAETESPGETTGGSAESEPPGEGEVQLLESGGGIVQPGGSLKLSCAASGFTFNTYAMNWVRQAPGKGLEWVARIRSKYNNYATYYADSVKDRFTISRDDSKNTVYLQMNNLKTEDTAVYYCVRHENFGNSYVSWFAHWGQGTLVTVSSGTAEAASASGEAGRSANHTPAG	0.000273 s⁻¹	72500 M⁻¹ s⁻¹	3.9 nM	4.5 nM	41.1 nM	3.9 nM	9.06 nM	64.6 nM	71.9 nM					Kd (human PSMA-Fc [4]): 3.9 nM; koff (human PSMA-Fc [4]): 0.00027 s⁻¹; kon (human PSMA-Fc [4]): 72000 M⁻¹ s⁻¹; EC50 [7]: 28.8 nM
uTCE from AC3928 (bispecific antibody, unmasked TCE released from this paTCE; also called PSMA.350-CD3.23 uTCE; AMX500-P6) LTGPGTSESATPESQVQLVESGGGVVQPGRSLRLSCAASGRTFGIYVWGWFRQAPGKEREFVGAMSWSGSNRKVSDSVKGRFTISRDNSKNTLYLQMNSLRAEDTAVYYCAASNKEYGRTWYDFNESDYWGQGTQVTVSSGGGGSGGGSELVVTQEPSLTVSPGGTVTLTCRSSNGAVTSSNYANWVQQKPGQAPRGLIGGTNKRAPGTPARFSGSLLGGKAALTLSGVQPEDEAVYYCALWYPNLWVFGGGTKLTVLSESATPESGPGTSPGATPESGPGTSESATPEVQLLESGGGIVQPGGSLKLSCAASGFTFNTYAMNWVRQAPGKGLEWVARIRSKYNNYATYYADSVKDRFTISRDDSKNTVYLQMNNLKTEDTAVYYCVRHENFGNSYVSWFAHWGQGTLVTVSSGTATPESGPGEAGRSASHTPAG				13.2 nM	198 nM			44.9 nM	43 nM	19 nM	354 nM	26.6 nM	27.3 nM	
uTCE from AC3934 (bispecific antibody, unmasked TCE released from this paTCE; also called PSMA.262-CD3.228 uTCE) LTGPGTSESATPESQVQLVESGGGVVQPGRSLRLSCAASGRTFGIYVWGWVRQAPGKEREFVGAISWSGSNRKVSDSVKGRFTISRDNSKNTLYLQMNSLRAEDTAVYYCAASNKLYGRTWYDFNESDYWGQGTQVTVSSGGGGSGGGSELVVTQEPSLTVSPGGTVTLTCRSSNGAVTSSNYANWVQQKPGQAPRGLIGGTNKRAPGTPARFSGSLLGGKAALTLSGVQPEDEAVYYCALWYPNLWVFGGGTKLTVLSESATPESGPGTSPGATPESGPGTSESATPEVQLVESGGGIVQPGGSLRLSCAASGFTFSTYAMNWVRQAPGKGLEWVGRIRTKRNNYATYYADSVKGRFTISRDDSKNTVYLQMNSLKTEDTAVYYCVRHENFGNSYVSWFAHWGQGTLVTVSSGTATPESGPGEAGRSASHTPAG				1.6 nM	13.1 nM			33.7 nM	26.6 nM	0.5 nM	13 nM	10.4 nM	9.83 nM	
AMX-500(uTCE) (bispecific antibody, also called uTCE from AC3896; fully unmasked AMX-500; not shown: remnant of cleaved N-terminal release segment RSR-3213; remnant of cleaved C-terminal release segment RSR-3213) GTSESATPESQVQLVESGGGVVQPGRSLRLSCAASGRTFGIYVWGWFRQAPGKEREFVGAMSWSGSNRKVSDSVKGRFTISRDNSKNTLYLQMNSLRAEDTAVYYCAASNKEYGRTWYDFNESDYWGQGTQVTVSSGGGGSGGGSELVVTQEPSLTVSPGGTVTLTCRSSNGAVTSSNYANWVQQKPGQAPRGLIGGTNKRAPGTPARFSGSLLGGKAALTLSGVQPEDEAVYYCALWYPNLWVFGGGTKLTVLSESATPESGPGTSPGATPESGPGTSESATPEVQLVESGGGIVQPGGSLRLSCAASGFTFSTYAMNWVRQAPGKGLEWVGRIRTKRNNYATYYADSVKGRFTISRDDSKNTVYLQMNSLKTEDTAVYYCVRHENFGNSYVSWFAHWGQGTLVTVSSGTATPESGPG				12.1 nM	201 nM		17.4 nM	38.8 nM	33.2 nM	11.7 nM	230 nM	13.7 nM	12.8 nM	in vitro cytotoxicity IC50, LNCaP PSMA-high cells with PBMC, donor 1 [15]: 0.024 nM; in vitro cytotoxicity IC50, LNCaP PSMA-high cells with PBMC, donor 2 [15]: 0.015 nM; in vitro cytotoxicity IC50, LNCaP PSMA-high cells with PBMC, donor 3 [15]: 0.016 nM; in vitro cytotoxicity IC50, LNCaP PSMA-high cells with PBMC, donor 5 [15]: 0.032 nM; Kd (human PSMA [16]): 44 nM; koff (human PSMA [16]): 0.012 s⁻¹; kon (human PSMA [16]): 270000 M⁻¹ s⁻¹; Kd (cynomolgus monkey PSMA [17]): 410 nM; koff (cynomolgus monkey PSMA [17]): 0.043 s⁻¹; kon (cynomolgus monkey PSMA [17]): 100000 M⁻¹ s⁻¹; in vitro cytotoxicity IC50, 22Rv1 cells with PBMC, donor 1 [18]: 0.691 nM; in vitro cytotoxicity IC50, 22Rv1 cells with PBMC, donor 2 [18]: 1.34 nM; in vitro cytotoxicity IC50, 22Rv1 cells with PBMC, donor 3 [18]: 1.3 nM; Kd (Cyno CD3): 26 nM; koff (Cyno CD3): 0.1 s⁻¹; kon (Cyno CD3): 5e+06 M⁻¹ s⁻¹; Kd (Human CD3): 28 nM; koff (Human CD3): 0.1 s⁻¹; kon (Human CD3): 4e+06 M⁻¹ s⁻¹
